Measured values from US10500249B2, “Compositions and methods for preventing or treating diseases, conditions, or processes characterized by aberrant fibroblast proliferation and extracellular matrix deposition” (MOERAE MATRIX, INC., priority 2014, dated 2019).

Tests used:
Assay in all cases: Kinase Profiling Assay
Assay type in all cases: biochemical
Conditions in all cases: 100 μM
[1] = molecular target: Axl (h) (Homo sapiens, UniProt P30530)
In short: (§1)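 Kinase inhibition by MK2 inhibitory peptides was profiled radiometrically, with substrate phosphorylation from labeled ATP read by scintillation after capture on a charged filter. Values are relative to 100% activity and measured in duplicate.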

[2] = molecular target: T1, CaMKIIδ (h) (Homo sapiens, UniProt Q13557)
T1 construct: purchased Millipore
In short: as §1

[3] = molecular target: T2, GRK7 (h) (Homo sapiens, UniProt Q8WTQ7)
T2 construct: purchased Millipore
T2 sequence (Q8WTQ7 1-553): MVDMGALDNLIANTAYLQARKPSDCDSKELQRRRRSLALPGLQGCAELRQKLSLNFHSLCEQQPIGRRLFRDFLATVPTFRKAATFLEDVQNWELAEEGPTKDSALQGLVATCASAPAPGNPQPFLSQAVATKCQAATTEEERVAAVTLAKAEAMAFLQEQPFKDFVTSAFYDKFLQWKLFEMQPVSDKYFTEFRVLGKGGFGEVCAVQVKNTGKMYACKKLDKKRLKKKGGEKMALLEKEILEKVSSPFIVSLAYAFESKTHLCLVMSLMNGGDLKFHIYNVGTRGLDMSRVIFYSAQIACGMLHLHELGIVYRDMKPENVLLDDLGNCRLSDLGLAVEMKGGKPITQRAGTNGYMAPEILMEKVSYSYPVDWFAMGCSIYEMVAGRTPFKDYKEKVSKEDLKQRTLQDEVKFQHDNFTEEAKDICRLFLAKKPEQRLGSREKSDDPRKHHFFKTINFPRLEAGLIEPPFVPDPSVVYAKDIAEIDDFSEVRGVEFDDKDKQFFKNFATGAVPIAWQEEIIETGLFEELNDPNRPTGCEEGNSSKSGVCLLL
In short: as §1

[4] = molecular target: T3, MSSK1 (h) (Homo sapiens, UniProt Q9UPE1)
T3 construct: purchased Millipore
In short: as §1

[5] = molecular target: Met(D1246N) (h) (Homo sapiens, UniProt P08581, D1228N)
In short: as §1

[6] = molecular target: SIK (h) (Homo sapiens, UniProt P57059)
In short: as §1

[7] = molecular target: T4, Txk (h) (Homo sapiens, UniProt P42681)
T4 sequence (P42681 1-527): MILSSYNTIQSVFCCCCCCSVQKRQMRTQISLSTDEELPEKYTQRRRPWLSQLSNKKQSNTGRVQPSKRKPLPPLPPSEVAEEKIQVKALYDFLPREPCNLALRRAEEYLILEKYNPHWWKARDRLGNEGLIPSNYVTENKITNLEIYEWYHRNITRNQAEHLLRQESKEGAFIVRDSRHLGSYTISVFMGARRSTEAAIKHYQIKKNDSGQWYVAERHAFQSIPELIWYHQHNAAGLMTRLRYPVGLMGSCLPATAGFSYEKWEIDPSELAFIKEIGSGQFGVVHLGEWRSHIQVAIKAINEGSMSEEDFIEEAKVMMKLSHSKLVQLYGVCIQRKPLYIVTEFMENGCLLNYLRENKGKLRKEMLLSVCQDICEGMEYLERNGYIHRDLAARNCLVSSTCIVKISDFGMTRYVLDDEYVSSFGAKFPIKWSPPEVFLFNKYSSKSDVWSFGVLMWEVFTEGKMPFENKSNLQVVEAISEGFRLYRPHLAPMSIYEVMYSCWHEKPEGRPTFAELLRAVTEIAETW
In short: as §1

[8] = molecular target: T5, ULK2 (h) (Homo sapiens, UniProt Q8IYT8)
T5 sequence (Q8IYT8 1-1036): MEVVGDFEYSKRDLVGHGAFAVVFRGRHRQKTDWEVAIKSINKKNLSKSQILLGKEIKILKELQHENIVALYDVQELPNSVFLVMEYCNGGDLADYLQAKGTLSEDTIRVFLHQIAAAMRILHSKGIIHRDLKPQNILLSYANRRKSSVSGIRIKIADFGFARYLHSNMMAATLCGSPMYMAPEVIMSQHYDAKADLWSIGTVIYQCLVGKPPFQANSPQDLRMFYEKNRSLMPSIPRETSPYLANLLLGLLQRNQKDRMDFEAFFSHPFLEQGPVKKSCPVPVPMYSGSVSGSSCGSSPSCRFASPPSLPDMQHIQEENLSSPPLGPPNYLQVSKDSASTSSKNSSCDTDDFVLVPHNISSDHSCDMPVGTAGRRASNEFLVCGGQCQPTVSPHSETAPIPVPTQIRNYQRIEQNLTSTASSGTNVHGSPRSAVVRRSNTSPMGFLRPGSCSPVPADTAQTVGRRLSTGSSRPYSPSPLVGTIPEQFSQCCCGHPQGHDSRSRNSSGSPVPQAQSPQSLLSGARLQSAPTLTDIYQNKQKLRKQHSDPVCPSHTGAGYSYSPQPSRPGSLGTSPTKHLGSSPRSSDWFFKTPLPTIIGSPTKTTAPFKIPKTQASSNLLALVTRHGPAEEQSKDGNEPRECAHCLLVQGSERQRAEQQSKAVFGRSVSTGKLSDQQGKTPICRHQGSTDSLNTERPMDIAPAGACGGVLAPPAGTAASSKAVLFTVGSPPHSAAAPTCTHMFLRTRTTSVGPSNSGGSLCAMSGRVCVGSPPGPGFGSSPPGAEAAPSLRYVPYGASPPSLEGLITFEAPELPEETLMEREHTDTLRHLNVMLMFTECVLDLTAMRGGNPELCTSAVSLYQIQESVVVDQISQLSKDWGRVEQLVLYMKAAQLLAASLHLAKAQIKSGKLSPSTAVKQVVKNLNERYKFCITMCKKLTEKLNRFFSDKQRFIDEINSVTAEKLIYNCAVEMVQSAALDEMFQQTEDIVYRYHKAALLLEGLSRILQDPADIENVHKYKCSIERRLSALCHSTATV
In short: as §1

T3 sequence (Q9UPE1 whole entry): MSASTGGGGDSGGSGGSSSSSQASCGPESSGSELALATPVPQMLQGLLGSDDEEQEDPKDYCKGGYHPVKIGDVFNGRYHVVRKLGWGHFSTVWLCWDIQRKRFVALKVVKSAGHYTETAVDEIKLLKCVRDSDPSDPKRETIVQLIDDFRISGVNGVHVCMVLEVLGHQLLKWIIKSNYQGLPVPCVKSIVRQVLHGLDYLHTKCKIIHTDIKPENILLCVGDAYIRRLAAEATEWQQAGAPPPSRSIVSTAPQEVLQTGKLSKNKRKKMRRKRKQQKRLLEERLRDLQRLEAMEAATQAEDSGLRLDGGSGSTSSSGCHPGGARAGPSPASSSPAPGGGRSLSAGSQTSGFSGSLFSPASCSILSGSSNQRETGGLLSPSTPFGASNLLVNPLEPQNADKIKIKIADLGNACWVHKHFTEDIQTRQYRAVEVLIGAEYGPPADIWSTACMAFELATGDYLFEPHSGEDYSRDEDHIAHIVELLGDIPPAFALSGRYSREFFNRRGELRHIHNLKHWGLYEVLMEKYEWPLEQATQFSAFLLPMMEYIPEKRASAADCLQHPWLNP
T1 sequence (Q13557 whole entry): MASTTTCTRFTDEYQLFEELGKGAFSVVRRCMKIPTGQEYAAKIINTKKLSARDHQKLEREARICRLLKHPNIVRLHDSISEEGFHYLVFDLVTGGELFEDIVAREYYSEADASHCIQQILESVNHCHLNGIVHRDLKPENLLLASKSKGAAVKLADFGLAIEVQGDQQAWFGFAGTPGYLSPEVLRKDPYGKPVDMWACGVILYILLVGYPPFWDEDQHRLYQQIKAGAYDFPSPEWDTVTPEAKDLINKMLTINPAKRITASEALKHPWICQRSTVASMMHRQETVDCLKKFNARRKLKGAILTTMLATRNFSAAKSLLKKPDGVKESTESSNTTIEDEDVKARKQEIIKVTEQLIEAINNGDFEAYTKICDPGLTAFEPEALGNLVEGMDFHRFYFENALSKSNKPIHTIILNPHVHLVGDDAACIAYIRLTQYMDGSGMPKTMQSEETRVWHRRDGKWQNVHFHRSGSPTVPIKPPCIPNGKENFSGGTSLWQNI
Sequence of SIK (h) (P57059 whole entry): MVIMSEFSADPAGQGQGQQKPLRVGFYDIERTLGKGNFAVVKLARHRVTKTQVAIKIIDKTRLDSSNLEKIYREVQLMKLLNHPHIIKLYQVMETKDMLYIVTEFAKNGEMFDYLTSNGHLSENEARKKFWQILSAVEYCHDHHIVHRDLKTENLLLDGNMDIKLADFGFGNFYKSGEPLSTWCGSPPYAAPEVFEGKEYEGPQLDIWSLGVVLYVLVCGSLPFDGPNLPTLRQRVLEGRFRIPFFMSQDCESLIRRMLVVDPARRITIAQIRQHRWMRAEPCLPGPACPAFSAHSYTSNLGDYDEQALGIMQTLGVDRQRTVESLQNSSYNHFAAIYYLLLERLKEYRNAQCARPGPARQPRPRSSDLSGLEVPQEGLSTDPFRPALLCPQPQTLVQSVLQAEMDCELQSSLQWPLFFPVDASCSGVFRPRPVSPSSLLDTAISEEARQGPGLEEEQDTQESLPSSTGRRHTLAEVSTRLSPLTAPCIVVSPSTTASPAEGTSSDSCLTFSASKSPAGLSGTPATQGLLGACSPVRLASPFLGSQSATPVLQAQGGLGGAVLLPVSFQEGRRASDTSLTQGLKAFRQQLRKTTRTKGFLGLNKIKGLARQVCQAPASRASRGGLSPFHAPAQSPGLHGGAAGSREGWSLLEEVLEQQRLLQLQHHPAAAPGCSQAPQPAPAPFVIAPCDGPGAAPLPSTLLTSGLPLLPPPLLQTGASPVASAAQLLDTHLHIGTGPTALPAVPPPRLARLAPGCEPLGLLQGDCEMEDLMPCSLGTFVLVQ

Sequence	% activity [1]	% activity [2]	% activity [3]	% activity [4]	% activity [5]	% activity [6]	% activity [7]	% activity [8]
FAKLAARLYRKALARQLGVAA [MMI-0300]	52%	1%	122%	77%	82%	66%	48%	122%
HRRIKAWLKKIKALARQLGVAA (Mammalian) [MMI-0500]	12%	1%	93%	22%	90%	40%	10%	124%
KAFAKLAARLYRKALARQLGVAA [MMI-0400]	41%	2%	100%	75%	31%	68%	37%	131%
YARAAARQARAKALNRQLGVA (Mammalian) [MMI-0200]	99%	2%	124%	100%	149%		98%	132%
